Laboratory results taken from US10251942B2, “Immunity-inducing agent” (TORAY INDUSTRIES, INC., priority 2009, dated 2019).

Key:
[1] = test system: colon cancer cell line CT26; assay: Anti-tumor effect of recombinant murine PDS5A protein in tumor-bearing mouse, therapeutic model, CT26; assay type: in vivo, Balb/c mice
Procedure: (§1) The same experiment was carried out also for a colon cancer model. The colon cancer cell line CT26 was subcutaneously transplanted to Balb/c mice (7 weeks old, male, purchased from Japan SLC) in an amount of 1×10^6 cells. When the tumor volume reached an average of 50 to 100 mm^3 (typically 7 days after the inoculation of the tumor), the mice were randomly divided into groups each of which contains 10 individuals, and subjected to evaluation of the anti-tumor effect of the recombinant murine PDS5A protein (therapeutic model). With 100 μg (0.5 ml) of the recombinant murine PDS5A protein purified as described above, 50 μg of poly I:C was mixed to prepare a therapeutic agent for cancer, and this therapeutic agent was subcutaneously administered to the tumor-bearing mice a total of 3 times at intervals of 1 week. […] On the other hand, in the negative control group to which PBS(−) was administered and the group to which poly I:C alone (50 μg) was administered, the mean tumor volumes on Day 24 after the administration were 1449 mm^3 and 835 mm^3, respectively.

[2] = test system: murine neuroblastoma cell line N2a; assay: Anti-tumor effect of recombinant murine PDS5A protein, prophylactic model, N2a; assay type: in vivo, A/J mice
Procedure: (§2) Further, a therapeutic agent for cancer wherein 100 μg (0.5 ml) of the recombinant murine PDS5A protein and 50 μg poly I:C were mixed was prepared, and subcutaneously administered to A/J mice a total of 3 times at intervals of 1 week, followed by transplantation of 1×10^6 N2a cells to the mice and evaluation of the anti-tumor effect (prophylactic model). Ten individuals were included in each group, and, as controls for comparison, a negative control group to which PBS(−) was administered and a group to which poly I:C alone (50 μg) was administered were provided. […] On the other hand, in the negative control group to which PBS(−) was administered and the group to which poly I:C alone (50 μg) was administered, the mean tumor volumes on Day 40 after the administration were 1989 mm^3 and 1843 mm^3, respectively.

[3] = test system: colon cancer cell line CT26; assay: Anti-tumor effect of recombinant murine PDS5A protein, prophylactic model, CT26; assay type: in vivo, Balb/c mice
Procedure: as §2, with “Balb/c” for “A/J”, “CT26” for “N2a”, “31” for “40”, “1781” for “1989”, “1675” for “1843”

[4] = test system: murine neuroblastoma cell line N2a; assay: Anti-tumor effect of recombinant murine PDS5A protein in tumor-bearing mouse, therapeutic model, N2a; assay type: in vivo, A/J mice
Procedure: as §1, with “murine neuroblastoma” for “same experiment was carried out also for a colon cancer model. The colon cancer”, “N2a” for “CT26”, “A/J” for “Balb/c”, “31” for “24”, “1657” for “1449”, “932” for “835”

mammary gland tumor = assay: Anti-tumor effect of recombinant PDS5A protein in tumor-bearing dog, mammary gland tumor; assay type: in vivo; details: 500 μg protein with same amount of Freund's incomplete adjuvant, regional lymph node near tumor, 3 times at 1-week intervals; tumor about 500 mm^3 (dog-derived) or 1000 mm^3 (human-derived) at administration
Procedure: The anti-tumor effect of the recombinant protein described in Example 5 below in 3 individuals of tumor-bearing patient dogs (3 individuals having a mammary gland tumor) having a tumor mass in the epidermis was evaluated. Before administration, the antibody titer against the recombinant protein in the serum of each patient dog was measured by the method described in Example 5 (3), and, as a result, an antibody titer higher than that of a healthy dog was detected.
With 500 μg (2.5 ml) each of the recombinant PDS5A proteins (dog-derived and human-derived) purified as described above, the same amount of Freund's incomplete adjuvant (manufactured by Wako Pure Chemical Industries, Ltd.) was mixed to prepare 2 kinds of therapeutic agents for cancer, each of which was administered to a regional lymph node in the vicinity of the tumor a total of 3 times at 1-week intervals. […] On the other hand, in the negative control group to which PBS(−) was administered, the tumor volume, which had been about 800 mm^3 at the time of administration of PBS, became 1625 mm^3 on Day 21 after the administration.

[5] = Day 31 after the administration, poly I:C alone 50 μg

## poly I:C [reference compound]
[1]; Day 24 after the administration, poly I:C alone 50 μg
  mean tumor volume: 835 mm^3
[2]; Day 40 after the administration, poly I:C alone 50 μg
  mean tumor volume: 1843 mm^3
[3]; [5]
  mean tumor volume: 1675 mm^3
[4]; [5]
  mean tumor volume: 932 mm^3

B1: human PDS5A protein (SEQ ID NO:44): full-length human PDS5A (SEQ ID NO:44) expressed in E. coli; given mixed with Freund's incomplete adjuvant (protein, listed as Homo sapiens)
chain: MDFTAQPKPATALCGVVSADGKIAYPPGVKEITDKITTDEMIKRLKMVVKTFMDMDQDSEDEKQQYLPLALHLASEFFLRNPNKDVRLLVACCLADIFRIYAPEAPYTSHDKLKDIFLFITRQLKGLEDTKSPQFNRYFYLLENLAWVKSYNICFELEDCNEIFIQLFRTLFSVINNSHNKKVQMHMLDLMSSIIMEGDGVTQELLDSILINLIPAHKNLNKQSFDLAKVLLKRTVQTIEACIANFFNQVLVLGRSSVSDLSEHVFDLIQELFAIDPHLLLSVMPQLEFKLKSNDGEERLAVVRLLAKLFGSKDSDLATQNRPLWQCFLGRFNDIHVPVRLESVKFASHCLMNHPDLAKDLTEYLKVRSHDPEEAIRHDVIVTIITAAKRDLALVNDQLLGFVRERTLDKRWRVRKEAMMGLAQLYKKYCLHGEAGKEAAEKVSWIKDKLLHIYYQNSIDDKLLVEKIFAQYLVPHNLETEERMKCLYYLYASLDPNAVKALNEMWKCQNMLRSHVRELLDLHKQPTSEANCSAMFGKLMTIAKNLPDPGKAQDFVKKFNQVLGDDEKLRSQLELLISPTCSCKQADICVREIARKLANPKQPTNPFLEMVKFLLERIAPVHIDSEAISALVKLMNKSIEGTADDEEEGVSPDTAIRSGLELLKVLSFTHPTSFHSAETYESLLQCLRMEDDKVAEAAIQIFRNTGHKIETDLPQIRSTLIPILHQKAKRGTPHQAKQAVHCIHAIFTNKEVQLAQIFEPLSRSLNADVPEQLITPLVSLGHISMLAPDQFASPMKSVVANFIVKDLLMNDRSTGEKNGKLWSPDEEVSPEVLAKVQAIKLLVRWLLGMKNNQSKSANSTLRLLSAMLVSEGDLTEQKRISKSDMSRLRLAAGSAIMKLAQEPCYHEIITPEQFQLCALVINDECYQVRQIFAQKLHKALVKLLLPLEYMAIFALCAKDPVKERRAHARQCLLKNISIRREYIKQNPMATEKLLSLLPEYVVPYMIHLLAHDPDFTRSQDVDQLRDIKECLWFMLEVLMTKNENNSHAFMKKMAENIKLTRDAQSPDESKTNEKLYTVCDVALCVINSKSALCNADSPKDPVLPMKFFTQPEKDFCNDKSYISEETRVLLLTGKPKPAGVLGAVNKPLSATGRKPYVRSTGTETGSNINVNSELNPSTGNRSREQSSEAAETGVSENEENPVRIISVTPVKNIDPVKNKEINSDQATQGNISSDRGKKRTVTAAGAENIQQKTDEKVDESGPPAPSKPRRGRRPKSESQGNATKNDDLNKPINKGRKRAAVGQESPGGLEAGNAKAPKLQDLAKKAAPAERQIDLQR
modifications: mixed with Freund's incomplete adjuvant
Mammary gland tumor
  day on which complete regression of the tumor was achieved: 21 days

B2: recombinant murine PDS5A protein: full-length murine PDS5A (SEQ ID NO:6) expressed in E. coli, His tag cleaved; given mixed with poly I:C (protein, listed as Mus musculus)
chain: MDFTQPKPATALCGVVSADGKIAYPPGVKEITDKITTDEMIKRLKMVVKTFMDMDQDSEDEKQQYLPLALHLASEFFLRNPNKDVRLLVACCLADIFRIYAPEAPYTSHDKLKDIFLFITRQLKGLEDTKSPQFNRYFYLLENLAWVKSYNICFELEDCNEIFIQLFRTLFSVINNSHNTKVQMHMLDLMSSIIMEGDGVTQELLDSILINLIPAHKNLNKQSFDLAKVLLKRTVQTIEACIANFFNQVLVLGRSSVSDLSEHVFDLIQELFAIDPQLLLSVMPQLEFKLKSNDGEERLAVVRLLAKLFGSKDSDLATQNRPLWQCFLGRFNDIHVPVRLESVKFASHCLMNHPDLAKDLTEYLKVRSHDPEEAIRHDVIVTIITAAKRDLALVNDQLLGFVRERTLDKRWRVRKEAMMGLAQLYKKYCLHGEAGKEAAEKVSWIKDKLLHIYYQNSIDDKLLVEKIFAQYLVPHNLETEERMKCLYYLYASLDPNAVKALNEMWKCQNMLRSHVRELLDLHKQPTSEANCSAMFGKLMTIAKNLPDPGKAQDFVKKFNQVLGDDEKLRSQLELLISPTCSCKQADVCVREIARKLANPKQPTNPFLEMVKFLLERIAPVHIDSEAISALVKLMNKSIEGTADDEEEGVSPDSAIRSGLELLKVLSFTHPTSFHSAETYESLLQCLRMEDDKVAEAAIQIFRNTGHKIETDLPQIRSTLIPILHQKAKRGTPHQAKQAVHCIHAIFSNKEVQLAQIFEPLSRSLNADVPEQLITPLVSLGHISMLAPDQFASPMKSVVANFIVKDLLMNDRSTGEKNGKLWSPDEEVSPEVLAKVQAIKLLVRWLLGMKNNQSKSANSTLRLLSAMLVSEGDLTEQKRISKSDMSRLRLAAGSAIMKLAQEPCYHEIITPEQFQLCALVINDECYQVRQIFAQKLHKALVKLLLPLEYMAIFALCAKDPVKERRAHARQCLLKNISIRREYIKQNPMATEKLLSLLPEYVVPYMIHLLAHDPDFTRSQDVDQLRDIKECLWFMLEVLMTKNENNSHAFMKKMAENIKLTRDAQSPDESKTNEKLYTVCDVALCVINSKSALCNADSPKDPVLPMKFFTQPEKDFCNDKSYISEETRVLLLTGKPKPTGVLGTVNKPLSATGRKPYVRSAGTETGSNINANSELSPSAGSRSREQSSEASETGVSENEENPVRIISVTPVKNIDTVKNKEINSDQSTQGNISSDRGKKRIVTAAGAENIQKPDEKVDESGPPAPSKPRRGRRPKSESQGNATKNDDLNKPVSKGRKRAAGSQESLEAGNAKAPKLQDGAKKAVPAERQIDLQR
modifications: mixed with poly I:C
[1]; Day 24, 100 μg protein mixed with 50 μg poly I:C, subcutaneous, 3 times at intervals of 1 week, PBS(−) group 1449 mm^3
  tumor outcome: complete regression of the tumor
[2]; Day 40, 100 μg protein mixed with 50 μg poly I:C, subcutaneous, 3 times at intervals of 1 week before N2a transplantation, PBS(−) group 1989 mm^3
  tumor outcome: no development of a tumor
[3]; Day 31, 100 μg protein mixed with 50 μg poly I:C, subcutaneous, 3 times at intervals of 1 week before CT26 transplantation, PBS(−) group 1781 mm^3
  tumor outcome: no development of a tumor
[4]; Day 31, 100 μg protein mixed with 50 μg poly I:C, subcutaneous, 3 times at intervals of 1 week, PBS(−) group 1657 mm^3
  tumor outcome: complete regression of the tumor
